Measured values from patent US10973880B2, “Compositions and methods for treating pulmonary hypertension” (Acceleron Pharma Inc., priority 2016, dated 2021).
Where a chain is given by its changes, count along the chain named. In names and notes the source's numbering stands.

B1: ALK4-Fc homodimer: homodimer complex of ALK4-Fc fusion polypeptide (protein)
chain: SGPRGVQALLCACTSCLQANYTCETDGACMVSIFNLDGMEHHVRTCIPKVELVPAGKPFYCLSSEDLRNTHCCYTDYCNRIDLRVPSGHLKEPEHPSMWGPVE
modifications: left off: a dimerising Fc or GST
notes: homodimer complex of ALK4-Fc fusion polypeptide
B2: ActRIIB(L79D 20-134)-hFc: GDF trap: ActRIIB amino acids 20-134 with L79D substitution fused to human Fc (SEQ ID NO: 46) (protein)
chain: GRGEAETRECIYYNANWELERTNQSGLERCEGEQDKRLHCYASWRNSSGTIELVKKGCWDDDFNCYDRQECVATEENPQVYFCCCEGNFCNERFTHLPEAGGPEVTYEPPPTAPTGGGTHTCPPCPAPELLGGPSVFLFPPKPKDTLMISRTPEVTCVVVDVSHEDPEVKFNWYVDGVEVHNAKTKPREEQYNSTYRVVSVLTVLHQDWLNGKEYKCKVSNKALPVPIEKTISKAKGQPREPQVYTLPPSREEMTKNQVSLTCLVKGFYPSDIAVEWESNGQPENNYKTTPPVLDSDGSFFLYSKLTVDKSRWQQGNVFSCSVMHEALHNHYTQKSLSLSPGK
B3: ActRIIB(P129S, P130R 20-134)-hFc: ActRIIB(20-134)-hFc variant with P129S and P130R mutations (protein)
chain: B2 chain with D60L, P110S, P111R
B4: ActRIIB(L79E 20-134)-hFc: GDF trap form with a glutamate rather than an aspartate at position 79, human Fc fusion (protein)
chain: B2 chain with D60E
B5: ActRIIB(R64K 20-134)-hFc: ActRIIB(20-134)-hFc variant with R64K mutation (protein)
chain: B2 chain with R45K, D60L
B6: ActRIIB(A24N 20-134)-hFc: ActRIIB(20-134)-hFc variant with A24N mutation (protein)
chain: B2 chain with A5N, D60L
B7: ActRIIB(R64K 20-129)-hFc: ActRIIB(20-129)-hFc variant with R64K mutation (protein)
chain: GRGEAETRECIYYNANWELERTNQSGLERCEGEQDKRLHCYASWKNSSGTIELVKKGCWLDDFNCYDRQECVATEENPQVYFCCCEGNFCNERFTHLPEAGGPEVTYEPPGGGTHTCPPCPAPELLGGPSVFLFPPKPKDTLMISRTPEVTCVVVDVSHEDPEVKFNWYVDGVEVHNAKTKPREEQYNSTYRVVSVLTVLHQDWLNGKEYKCKVSNKALPVPIEKTISKAKGQPREPQVYTLPPSREEMTKNQVSLTCLVKGFYPSDIAVEWESNGQPENNYKTTPPVLDSDGSFFLYSKLTVDKSRWQQGNVFSCSVMHEALHNHYTQKSLSLSPGK
B8: A64 20-134: ActRIIB-Fc, amino acids 20-134 of SEQ ID NO: 1 with alanine at position 64 (protein)
chain: GRGEAETRECIYYNANWELERTNQSGLERCEGEQDKRLHCYASWANSSGTIELVKKGCWLDDFNCYDRQECVATEENPQVYFCCCEGNFCNERFTHLPEAGGPEVTYEPPPTAPT
modifications: Fc fusion partner without entry

Legend:
activin B = target: T1, activin B (Homo sapiens, UniProt P09529); experiment: Biacore-based binding assay, receptor captured with anti-Fc antibody
T1 sequence (P09529 293-407): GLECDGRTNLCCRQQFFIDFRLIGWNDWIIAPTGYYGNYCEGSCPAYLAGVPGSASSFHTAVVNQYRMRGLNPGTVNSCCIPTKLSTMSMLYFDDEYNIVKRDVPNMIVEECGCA
Procedure: (§1) A Biacore™-based binding assay was used to compare ligand binding selectivity of the ALK4-Fc:ActRIIB-Fc heterodimeric complex described above with that of ActRIIB-Fc and ALK4-Fc homodimer complexes. The ALK4-Fc:ActRIIB-Fc heterodimer, ActRIIB-Fc homodimer, and ALK4-Fc homodimer were independently captured onto the system using an anti-Fc antibody. Ligands were injected and allowed to flow over the captured receptor protein. Results are summarized in the table below, in which ligand off-rates (kd) most indicative of effective ligand traps are denoted in bold font.

GDF11 [1] = target: T2, GDF11 (Homo sapiens, UniProt O95390); experiment: as above
T2 sequence (O95390 299-407): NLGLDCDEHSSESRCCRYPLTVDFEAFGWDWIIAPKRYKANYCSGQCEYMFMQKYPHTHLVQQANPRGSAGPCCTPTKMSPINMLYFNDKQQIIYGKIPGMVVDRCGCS
Procedure: as §1

GDF8 [2] = target: T3, GDF8 (Homo sapiens, UniProt O14793); experiment: as above
T3 sequence (O14793 267-375): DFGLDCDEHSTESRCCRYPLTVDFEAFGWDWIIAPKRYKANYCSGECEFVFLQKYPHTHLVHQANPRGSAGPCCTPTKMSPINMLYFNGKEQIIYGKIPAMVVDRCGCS
Procedure: as §1

activin A [3] = target: T4, activin A (Homo sapiens, UniProt P08476); experiment: as above
T4 sequence (P08476 311-426): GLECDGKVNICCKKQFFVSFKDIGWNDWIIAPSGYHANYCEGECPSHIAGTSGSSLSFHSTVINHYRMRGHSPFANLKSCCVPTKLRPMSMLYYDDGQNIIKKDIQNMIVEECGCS
Procedure: as §1

GDF11 [4] = target: T2, GDF11; experiment: Biacore assay, receptor captured with anti-hFc antibody; format: binding
Procedure: (§2) Binding of certain ActRIIB-Fc proteins and GDF traps to ligands was tested in a Biacore assay.
(§3) The ActRIIB-Fc variants or wild-type protein were captured onto the system using an anti-hFc antibody. Ligands were injected and flowed over the captured receptor proteins.

GDF8 [5] = target: T3, GDF8; experiment: as above; format: binding
Procedure: as §2, §3

activin A [6] = target: T4, activin A; experiment: as above; format: binding
Procedure: as §2, §3

activin = experiment: ActRIIB-Fc affinity for ligand (description); format: binding; conditions: ascertained by Applicants
GDF11 [7] = target: T2, GDF11; experiment: ActRIIB-Fc affinity for ligand (description); format: binding; conditions: ascertained by Applicants

Row | Molecule | Koff, GDF11 (GDF11 [4]) [s⁻¹] | Koff, GDF8 (GDF8 [5]) [s⁻¹] | Koff, Activin A (activin A [6]) [s⁻¹] | Kon, Activin A (activin A [6]) [M⁻¹ s⁻¹] | also measured
1 | B1 | – | – | – | – | KD, Activin B (activin B): No binding; ka, GDF11 (GDF11 [1]): 4.8e+06 M⁻¹ s⁻¹; kd, GDF11 (GDF11 [1]): 0.0048 s⁻¹; ka, GDF8 (GDF8 [2]): 130000 M⁻¹ s⁻¹; kd, GDF8 (GDF8 [2]): 0.0019 s⁻¹; ka, Activin A (activin A [3]): 580000 M⁻¹ s⁻¹; kd, Activin A (activin A [3]): 0.012 s⁻¹
2 | B2 | 0.000439 | 0.00083 | – | – | KD, Activin A (activin A [6]): Low binding
3 | B3 | – | 0.00018 | 0.000417 | 5.02e+06 | –
4 | B4 | 0.000274 | 0.0009 | – | – | KD, Activin A (activin A [6]): Low binding
5 | B5 | 2.41e-05 | 4.71e-05 | 0.000325 | 6.82e+06 | –
6 | B6 | 6.35e-05 | – | 0.000346 | 3.34e+06 | –
7 | B7 | – | 0.000209 | 0.000628 | 7.46e+06 | –
8 | B8 | – | – | – | – | affinity for activin (activin): relatively low affinity; affinity for GDF11 (GDF11 [7]): relatively low affinity
